Assay results: publication PMC9561264
“And” between values parts separate entries of the source, which are not always exact repeats. Equal values may be shown once.

Tests used:
[1] = biological target: T1, hOGG1 wild type;c-Myc;Max (human;human?;human?) (UniProt O15527+P01106); assay: AFM (QD-Myc); details: FP at 25°C with 5 nM labelled DNA, EMSA room temp 30 min, 15% native PAGE 0.5x TBE 4°C, interaction buffer 20 mM Tris-HCl pH 7.6, 200 mM NaCl (Fig. S12) …
[2] = biological target: T1, hOGG1 wild type;c-Myc;Max (human;human?;human?); assay: AFM; details: 8-oxoguanine at ~50% (49.8%) of length, FP at 25°C with 5 nM labelled DNA, EMSA room temp 30 min, 15% native PAGE 0.5x TBE 4°C
[3] = biological target: hOGG1 K249Q;c-Myc K249Q (human;human?) (UniProt O15527+P01106); assay: AFM; details: 8-oxoguanine at ~50% (49.8%) of length, FP at 25°C with 5 nM labelled DNA, EMSA room temp 30 min, 15% native PAGE 0.5x TBE 4°C
[4] = biological target: hOGG1 K249Q K249Q (human) (UniProt O15527); assay: AFM; details: 8-oxoguanine at ~50% (49.8%) of length, FP at 25°C with 5 nM labelled DNA, EMSA room temp 30 min, 15% native PAGE 0.5x TBE 4°C
[5] = biological target: T2, hOGG1 wild type;c-Myc (human;human?) (UniProt O15527+P01106); assay: AFM; details: 30 nM Myc, 8-oxoguanine at ~50% (49.8%) of length, FP at 25°C with 5 nM labelled DNA, EMSA room temp 30 min, 15% native PAGE 0.5x TBE 4°C, interaction buffer 20 mM Tris-HCl pH 7.6, 200 mM NaCl (Fig. S12) …
[6] = biological target: hOGG1 C28A;c-Myc C28A (human;human?) (UniProt O15527+P01106); assay: AFM; details: 8-oxoguanine at ~50% (49.8%) of length; FP at 25°C with 5 nM labelled DNA; EMSA room temp 30 min, 15% native PAGE 0.5x TBE 4°C; interaction buffer 20 mM Tris-HCl pH 7.6, 200 mM NaCl (Fig. S12) …
hOGG1 C28A C28A (human) = hOGG1 C28A C28A (human) (UniProt O15527); assay: AFM; details: oxidising; specificity 779 ± 471; 8-oxoguanine at ~50% (49.8%) of length; FP at 25°C with 5 nM labelled DNA; EMSA room temp 30 min, 15% native PAGE 0.5x TBE 4°C; interaction buffer 20 mM Tris-HCl pH 7.6, 200 mM NaCl (Fig. S12); reduci
c-Myc;Max = c-Myc;Max (UniProt P01106); assay: AFM (QD-Myc); details: 8-oxoguanine 8 bp upstream of E-box, ~50% of length; FP at 25°C with 5 nM labelled DNA; EMSA room temp 30 min, 15% native PAGE 0.5x TBE 4°C; interaction buffer 20 mM Tris-HCl pH 7.6, 200 mM NaCl (Fig. S12) …
[7] = biological target: hOGG1 K249Q;c-Myc;Max K249Q (human;human?;human?) (UniProt O15527+P01106); assay: AFM (QD-Myc); details: 8-oxoguanine 8 bp upstream of E-box, ~50% of length; FP at 25°C with 5 nM labelled DNA; EMSA room temp 30 min, 15% native PAGE 0.5x TBE 4°C; interaction buffer 20 mM Tris-HCl pH 7.6, 200 mM NaCl (Fig. S12) …
[8] = biological target: hOGG1 C28A;c-Myc;Max C28A (human;human?;human?) (UniProt O15527+P01106); assay: AFM (QD-Myc); details: 8-oxoguanine 8 bp upstream of E-box, ~50% of length; FP at 25°C with 5 nM labelled DNA; EMSA room temp 30 min, 15% native PAGE 0.5x TBE 4°C; interaction buffer 20 mM Tris-HCl pH 7.6, 200 mM NaCl (Fig. S12) …
[9] = biological target: T2, hOGG1 wild type;c-Myc (human;human?); assay: AFM (QD-Myc); details: 8-oxoguanine 8 bp upstream of E-box, ~50% of length; FP at 25°C with 5 nM labelled DNA; EMSA room temp 30 min, 15% native PAGE 0.5x TBE 4°C; interaction buffer 20 mM Tris-HCl pH 7.6, 200 mM NaCl (Fig. S12) …

T1 sequence (P01106 whole entry, looked up, chain 1 of 2): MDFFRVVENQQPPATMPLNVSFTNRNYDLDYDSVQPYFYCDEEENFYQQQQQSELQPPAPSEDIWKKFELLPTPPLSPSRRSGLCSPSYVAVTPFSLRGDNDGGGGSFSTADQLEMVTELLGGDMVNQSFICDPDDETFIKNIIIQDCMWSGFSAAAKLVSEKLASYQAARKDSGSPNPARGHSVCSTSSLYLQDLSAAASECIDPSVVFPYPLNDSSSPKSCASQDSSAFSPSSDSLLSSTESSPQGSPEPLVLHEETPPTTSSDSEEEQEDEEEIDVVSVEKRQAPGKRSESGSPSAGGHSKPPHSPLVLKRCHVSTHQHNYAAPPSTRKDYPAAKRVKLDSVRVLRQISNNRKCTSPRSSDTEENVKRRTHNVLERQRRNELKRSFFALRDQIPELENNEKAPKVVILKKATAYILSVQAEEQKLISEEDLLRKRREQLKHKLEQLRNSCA
T1 sequence (O15527 whole entry, looked up, chain 2 of 2): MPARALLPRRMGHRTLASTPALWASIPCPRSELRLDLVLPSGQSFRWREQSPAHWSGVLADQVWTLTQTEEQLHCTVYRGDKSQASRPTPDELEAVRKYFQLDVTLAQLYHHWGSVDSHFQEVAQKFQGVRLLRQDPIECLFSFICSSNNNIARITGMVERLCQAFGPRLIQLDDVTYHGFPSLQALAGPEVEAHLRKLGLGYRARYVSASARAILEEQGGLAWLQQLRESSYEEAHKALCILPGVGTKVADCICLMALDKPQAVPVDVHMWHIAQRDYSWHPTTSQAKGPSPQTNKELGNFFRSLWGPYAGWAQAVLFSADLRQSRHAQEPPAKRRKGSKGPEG
T2 sequence (O15527 whole entry, chain 1 of 2): as the sequence (O15527 whole entry, looked up, chain 2 of 2) above
T2 sequence (P01106 16-454, chain 2 of 2): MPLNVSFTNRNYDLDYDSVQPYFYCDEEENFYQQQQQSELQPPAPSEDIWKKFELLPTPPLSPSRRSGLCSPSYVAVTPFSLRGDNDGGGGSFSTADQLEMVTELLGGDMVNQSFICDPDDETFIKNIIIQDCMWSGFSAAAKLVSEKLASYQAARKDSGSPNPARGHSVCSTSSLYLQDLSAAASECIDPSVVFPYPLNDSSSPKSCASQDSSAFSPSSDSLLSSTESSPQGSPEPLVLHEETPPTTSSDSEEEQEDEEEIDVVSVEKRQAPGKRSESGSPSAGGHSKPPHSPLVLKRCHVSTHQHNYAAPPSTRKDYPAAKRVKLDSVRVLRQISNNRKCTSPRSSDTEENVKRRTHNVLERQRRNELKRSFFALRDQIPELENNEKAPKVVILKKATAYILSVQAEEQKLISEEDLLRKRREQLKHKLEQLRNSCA
Sequence of hOGG1 K249Q;c-Myc K249Q (human;human?) (O15527 whole entry K249Q, chain 1 of 2): as the sequence (O15527 whole entry, looked up, chain 2 of 2) above, with K249Q counted along it
Sequence of hOGG1 K249Q;c-Myc K249Q (human;human?) (P01106 16-454, chain 2 of 2): as the sequence (P01106 16-454, chain 2 of 2) above
Sequence of hOGG1 K249Q K249Q (human) (O15527 whole entry K249Q): as the sequence (O15527 whole entry, looked up, chain 2 of 2) above, with K249Q counted along it
Sequence of hOGG1 K249Q;c-Myc;Max K249Q (human;human?;human?) (P01106 whole entry, looked up, chain 1 of 2): as the sequence (P01106 whole entry, looked up, chain 1 of 2) above
Sequence of hOGG1 K249Q;c-Myc;Max K249Q (human;human?;human?) (O15527 whole entry, looked up, stated change not applied, chain 2 of 2): as the sequence (O15527 whole entry, looked up, chain 2 of 2) above
Sequence of c-Myc;Max (P01106 whole entry, looked up): as the sequence (P01106 whole entry, looked up, chain 1 of 2) above
Sequence of hOGG1 C28A;c-Myc;Max C28A (human;human?;human?) (P01106 whole entry, looked up, chain 1 of 2): as above
Sequence of hOGG1 C28A;c-Myc;Max C28A (human;human?;human?) (O15527 whole entry, looked up, stated change not applied, chain 2 of 2): as the sequence (O15527 whole entry, looked up, chain 2 of 2) above
Sequence of hOGG1 C28A C28A (human) (O15527 whole entry C28A): as the sequence (O15527 whole entry, looked up, chain 2 of 2) above, with C28A counted along it
Sequence of hOGG1 C28A;c-Myc C28A (human;human?) (O15527 whole entry C28A, chain 1 of 2): as the sequence (O15527 whole entry, looked up, chain 2 of 2) above, with C28A counted along it
Sequence of hOGG1 C28A;c-Myc C28A (human;human?) (P01106 16-454, chain 2 of 2): as the sequence (P01106 16-454, chain 2 of 2) above

E-box AFM substrate
binding signal [1]: 0.11 Myc/DNA

oxoG 505 bp AFM substrate
binding signal ([1]; 8-oxoguanine at ~50% (49.8%) of length): 0.15 Myc/DNA and 0.06 Myc/DNA
binding signal (counts/DNA at oxoG) ([2]; oxidising, specificity 421 ± 252, interaction buffer 20 mM Tris-HCl pH 7.6, 200 mM NaCl (Fig. S12), reduci): 0.19
binding signal (counts/DNA at oxoG) ([2]; reducing, specificity 456 ± 289, interaction buffer 20 mM Tris-HCl pH 7.6, 200 mM NaCl (Fig. S12) …): 0.12
binding signal (counts/DNA at oxoG) ([3]; oxidising, specificity 438 ± 217, interaction buffer 20 mM Tris-HCl pH 7.6, 200 mM NaCl (Fig. S12), reduci): 0.1
binding signal (counts/DNA at oxoG) ([3]; reducing, specificity 421 ± 153, interaction buffer 20 mM Tris-HCl pH 7.6, 200 mM NaCl (Fig. S12) …): 0.15
binding signal (counts/DNA at oxoG) ([4]; oxidising, specificity 294 ± 139, interaction buffer 20 mM Tris-HCl pH 7.6, 200 mM NaCl (Fig. S12), reduci): 0.09
binding signal (counts/DNA at oxoG) ([4]; reducing, specificity 468 ± 197, interaction buffer 20 mM Tris-HCl pH 7.6, 200 mM NaCl (Fig. S12) …): 0.18
binding signal (counts/DNA at oxoG) ([5]; oxidising, specificity 423 ± 155): 0.17
binding signal (counts/DNA at oxoG) ([5]; reducing, specificity 517 ± 161): 0.17
binding signal (counts/DNA at oxoG) [6]: 0.14
binding signal (counts/DNA at oxoG) (hOGG1 C28A C28A (human)): 0.14

oxoG-E-box AFM substrate
binding signal ([1]; 8-oxoguanine 8 bp upstream of E-box, ~50% of length): 0.29 Myc/DNA and 0.17 Myc/DNA
binding signal (c-Myc;Max): 0.14 Myc/DNA and 0.12 Myc/DNA
binding signal [7]: 0.29 Myc/DNA and 0.17 Myc/DNA
binding signal [8]: 0.16 Myc/DNA
binding signal [9]: 0.12 Myc/DNA and 0.08 Myc/DNA
